Test results taken from article PMC10201424, “Biochemical characterisation of Mer3 helicase interactions and the protection of meiotic recombination intermediates” (Nucleic Acids Research, 2022).

Legend:
Mer3 = biological target: T1, Mer3 (Saccharomyces cerevisiae, UniProt P51979 1-1187); experiment: EMSA; no Mg or ATP; high affinity; EMSA: 25 mM HEPES pH 7.5, 0.1 ug/ul BSA, 60 mM NaCl, 10 nM DNA, 20 min at 30 C; 0.8% agarose in 1x TAE; Mer3 37.5-300 nM, Mlh1-Mlh2 20-150 nM; conditions: protein: recombinant; tags: C-terminal Twin-StrepII; label: 5'-FAM on strand 1; synthetic D-loop of 4 annealed oligos
T1 sequence: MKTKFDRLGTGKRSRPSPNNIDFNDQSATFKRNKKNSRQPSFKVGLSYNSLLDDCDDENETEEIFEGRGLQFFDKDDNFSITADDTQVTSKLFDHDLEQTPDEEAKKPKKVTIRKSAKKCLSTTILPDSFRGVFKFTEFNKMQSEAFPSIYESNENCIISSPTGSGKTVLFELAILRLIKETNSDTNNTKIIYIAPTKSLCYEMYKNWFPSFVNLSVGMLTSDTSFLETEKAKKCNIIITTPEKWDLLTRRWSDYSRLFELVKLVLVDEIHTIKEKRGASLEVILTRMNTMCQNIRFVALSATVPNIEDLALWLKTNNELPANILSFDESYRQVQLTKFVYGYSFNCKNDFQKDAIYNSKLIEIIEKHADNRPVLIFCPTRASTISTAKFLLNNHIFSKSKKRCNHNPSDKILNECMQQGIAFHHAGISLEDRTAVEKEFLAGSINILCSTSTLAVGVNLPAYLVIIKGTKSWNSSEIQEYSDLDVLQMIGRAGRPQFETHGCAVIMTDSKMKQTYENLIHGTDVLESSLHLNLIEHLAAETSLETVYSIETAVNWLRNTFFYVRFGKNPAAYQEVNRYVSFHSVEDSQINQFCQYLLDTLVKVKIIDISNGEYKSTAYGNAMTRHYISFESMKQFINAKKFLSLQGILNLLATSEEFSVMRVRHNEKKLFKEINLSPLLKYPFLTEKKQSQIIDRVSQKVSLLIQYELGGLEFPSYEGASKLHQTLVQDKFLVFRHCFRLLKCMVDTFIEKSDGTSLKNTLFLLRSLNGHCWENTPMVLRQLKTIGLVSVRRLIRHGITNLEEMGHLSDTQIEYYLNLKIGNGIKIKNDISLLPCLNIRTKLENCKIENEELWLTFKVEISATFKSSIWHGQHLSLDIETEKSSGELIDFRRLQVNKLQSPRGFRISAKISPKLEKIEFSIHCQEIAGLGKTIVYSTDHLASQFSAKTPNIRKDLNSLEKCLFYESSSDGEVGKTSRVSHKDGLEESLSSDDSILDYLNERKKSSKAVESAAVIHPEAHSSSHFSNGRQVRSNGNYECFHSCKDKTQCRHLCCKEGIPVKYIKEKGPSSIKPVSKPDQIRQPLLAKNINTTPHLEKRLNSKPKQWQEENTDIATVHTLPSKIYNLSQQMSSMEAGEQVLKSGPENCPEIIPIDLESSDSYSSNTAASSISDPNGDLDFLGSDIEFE

MBP-Mlh1;MBP-Mlh2 = biological target: T2, MBP-Mlh1;MBP-Mlh2 (Saccharomyces cerevisiae;Saccharomyces …, UniProt P38920;Q07980 1-769;1-695, |); experiment: EMSA; robust binding; EMSA: 25 mM HEPES pH 7.5, 0.1 ug/ul BSA, 60 mM NaCl, 10 nM DNA, 20 min at 30 C; 0.8% agarose in 1x TAE; Mer3 37.5-300 nM, Mlh1-Mlh2 20-150 nM; conditions: protein: recombinant;recombinant; tags: N-terminal 6xHis-MBP;N-terminal 6xHis-MBP; copies: 1;1; label: 5'-FAM on strand 1; synthetic D-loop of 4 annealed oligos
T2 sequence 1: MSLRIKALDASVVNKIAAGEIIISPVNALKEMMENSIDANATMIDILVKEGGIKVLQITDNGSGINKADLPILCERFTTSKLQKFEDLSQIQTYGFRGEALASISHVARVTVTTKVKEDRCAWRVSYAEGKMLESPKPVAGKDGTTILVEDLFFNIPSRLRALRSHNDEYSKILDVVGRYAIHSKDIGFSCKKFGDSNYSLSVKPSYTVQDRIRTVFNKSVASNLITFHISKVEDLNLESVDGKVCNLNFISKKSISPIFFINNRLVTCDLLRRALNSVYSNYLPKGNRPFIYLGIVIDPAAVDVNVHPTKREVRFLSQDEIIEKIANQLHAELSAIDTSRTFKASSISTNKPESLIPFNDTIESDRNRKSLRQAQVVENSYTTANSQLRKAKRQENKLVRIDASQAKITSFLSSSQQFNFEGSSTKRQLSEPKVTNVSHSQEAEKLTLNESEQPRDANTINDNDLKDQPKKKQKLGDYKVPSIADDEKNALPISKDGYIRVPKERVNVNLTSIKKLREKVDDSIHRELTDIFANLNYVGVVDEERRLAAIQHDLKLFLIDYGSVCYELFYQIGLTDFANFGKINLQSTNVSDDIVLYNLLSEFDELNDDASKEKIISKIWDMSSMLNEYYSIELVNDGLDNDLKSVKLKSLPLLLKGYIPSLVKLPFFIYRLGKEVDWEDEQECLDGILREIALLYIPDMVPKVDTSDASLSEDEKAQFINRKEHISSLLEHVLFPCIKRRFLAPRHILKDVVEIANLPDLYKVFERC
T2 sequence 2: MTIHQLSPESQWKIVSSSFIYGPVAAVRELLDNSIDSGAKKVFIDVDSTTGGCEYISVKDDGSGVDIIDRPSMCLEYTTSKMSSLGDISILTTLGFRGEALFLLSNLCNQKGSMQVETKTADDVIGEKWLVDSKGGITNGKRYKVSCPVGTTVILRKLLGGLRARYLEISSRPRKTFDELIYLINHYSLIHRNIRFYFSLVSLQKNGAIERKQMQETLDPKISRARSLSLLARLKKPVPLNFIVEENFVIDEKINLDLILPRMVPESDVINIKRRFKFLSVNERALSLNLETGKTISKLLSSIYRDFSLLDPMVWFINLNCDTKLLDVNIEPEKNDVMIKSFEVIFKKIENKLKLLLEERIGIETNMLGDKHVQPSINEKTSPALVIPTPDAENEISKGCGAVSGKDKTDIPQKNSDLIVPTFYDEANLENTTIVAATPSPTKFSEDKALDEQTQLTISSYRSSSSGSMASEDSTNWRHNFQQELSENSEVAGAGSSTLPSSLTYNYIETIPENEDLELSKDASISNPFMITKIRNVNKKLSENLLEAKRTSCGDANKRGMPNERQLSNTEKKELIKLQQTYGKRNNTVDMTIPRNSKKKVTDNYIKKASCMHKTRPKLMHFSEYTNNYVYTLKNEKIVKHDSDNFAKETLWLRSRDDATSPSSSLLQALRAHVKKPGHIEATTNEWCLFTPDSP

His-Mlh1;Strep-Mlh2 = biological target: T3, His-Mlh1;Strep-Mlh2 (Saccharomyces cerevisiae;Saccharomyces …, UniProt P38920;Q07980 1-769;1-695, |); experiment: as above; conditions: protein: recombinant;recombinant; tags: N-terminal 6xHis;N-terminal Twin-StrepII; copies: 1;1; label: 5'-FAM on strand 1; synthetic D-loop of 4 annealed oligos
T3 sequence 1: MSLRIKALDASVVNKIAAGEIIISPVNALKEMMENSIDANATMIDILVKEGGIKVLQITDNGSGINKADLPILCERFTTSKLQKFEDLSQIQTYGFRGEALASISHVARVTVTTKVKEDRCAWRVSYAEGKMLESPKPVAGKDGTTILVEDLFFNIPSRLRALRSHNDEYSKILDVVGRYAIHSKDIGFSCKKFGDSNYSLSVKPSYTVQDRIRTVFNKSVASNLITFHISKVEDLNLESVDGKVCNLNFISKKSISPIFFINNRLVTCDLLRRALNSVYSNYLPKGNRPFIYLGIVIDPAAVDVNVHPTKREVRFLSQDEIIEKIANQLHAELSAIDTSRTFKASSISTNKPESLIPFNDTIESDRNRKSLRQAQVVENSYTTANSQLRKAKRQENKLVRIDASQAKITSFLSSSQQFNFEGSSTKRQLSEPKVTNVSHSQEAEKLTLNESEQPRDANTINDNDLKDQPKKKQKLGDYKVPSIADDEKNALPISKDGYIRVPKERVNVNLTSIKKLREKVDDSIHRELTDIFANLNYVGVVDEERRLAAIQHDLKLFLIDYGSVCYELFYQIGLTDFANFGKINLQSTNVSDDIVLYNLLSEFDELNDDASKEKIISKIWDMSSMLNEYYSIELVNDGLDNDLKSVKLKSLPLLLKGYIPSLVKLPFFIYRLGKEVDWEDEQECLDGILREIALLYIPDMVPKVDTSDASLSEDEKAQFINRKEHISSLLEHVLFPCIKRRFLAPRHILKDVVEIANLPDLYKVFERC
T3 sequence 2: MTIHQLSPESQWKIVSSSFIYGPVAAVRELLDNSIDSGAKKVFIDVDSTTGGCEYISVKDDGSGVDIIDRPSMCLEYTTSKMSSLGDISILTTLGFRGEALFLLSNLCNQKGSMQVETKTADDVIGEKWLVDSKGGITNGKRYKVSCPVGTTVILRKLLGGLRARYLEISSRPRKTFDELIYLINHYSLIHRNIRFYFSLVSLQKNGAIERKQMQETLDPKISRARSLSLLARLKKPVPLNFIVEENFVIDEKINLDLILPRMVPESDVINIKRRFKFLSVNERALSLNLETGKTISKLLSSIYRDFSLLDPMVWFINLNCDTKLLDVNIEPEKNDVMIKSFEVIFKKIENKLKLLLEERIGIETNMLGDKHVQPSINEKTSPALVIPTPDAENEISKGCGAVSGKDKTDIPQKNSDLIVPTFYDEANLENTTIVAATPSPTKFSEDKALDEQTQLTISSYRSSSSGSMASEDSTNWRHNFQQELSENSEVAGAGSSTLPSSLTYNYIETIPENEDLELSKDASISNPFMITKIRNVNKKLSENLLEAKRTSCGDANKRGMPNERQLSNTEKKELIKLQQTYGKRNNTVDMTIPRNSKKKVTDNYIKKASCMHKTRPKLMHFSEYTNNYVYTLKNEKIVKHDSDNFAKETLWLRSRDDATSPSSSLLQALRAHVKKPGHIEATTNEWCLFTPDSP

[1] = biological target: T4, Mer3-Strep (full-length S. cerevisiae Mer3 with C-terminal 2xStrep-II tag) (S. cerevisiae, UniProt P51979 1-1187, phosphorylated in insect cells; high-confidence sites S17, S80, T100, S398, S958, T1092); experiment: pull-down; Mer3-Strep (0.7 μM) on streptavidin magnetic beads, His-Dmc1 3.2 μM or Rad51 2.8 μM; 25 mM HEPES pH 7.5, 5% glycerol, 100 mM NaCl, 1 mM TCEP, 0.1% Tween-20; stained gel; conditions: both partners purified
T4 sequence (looked up): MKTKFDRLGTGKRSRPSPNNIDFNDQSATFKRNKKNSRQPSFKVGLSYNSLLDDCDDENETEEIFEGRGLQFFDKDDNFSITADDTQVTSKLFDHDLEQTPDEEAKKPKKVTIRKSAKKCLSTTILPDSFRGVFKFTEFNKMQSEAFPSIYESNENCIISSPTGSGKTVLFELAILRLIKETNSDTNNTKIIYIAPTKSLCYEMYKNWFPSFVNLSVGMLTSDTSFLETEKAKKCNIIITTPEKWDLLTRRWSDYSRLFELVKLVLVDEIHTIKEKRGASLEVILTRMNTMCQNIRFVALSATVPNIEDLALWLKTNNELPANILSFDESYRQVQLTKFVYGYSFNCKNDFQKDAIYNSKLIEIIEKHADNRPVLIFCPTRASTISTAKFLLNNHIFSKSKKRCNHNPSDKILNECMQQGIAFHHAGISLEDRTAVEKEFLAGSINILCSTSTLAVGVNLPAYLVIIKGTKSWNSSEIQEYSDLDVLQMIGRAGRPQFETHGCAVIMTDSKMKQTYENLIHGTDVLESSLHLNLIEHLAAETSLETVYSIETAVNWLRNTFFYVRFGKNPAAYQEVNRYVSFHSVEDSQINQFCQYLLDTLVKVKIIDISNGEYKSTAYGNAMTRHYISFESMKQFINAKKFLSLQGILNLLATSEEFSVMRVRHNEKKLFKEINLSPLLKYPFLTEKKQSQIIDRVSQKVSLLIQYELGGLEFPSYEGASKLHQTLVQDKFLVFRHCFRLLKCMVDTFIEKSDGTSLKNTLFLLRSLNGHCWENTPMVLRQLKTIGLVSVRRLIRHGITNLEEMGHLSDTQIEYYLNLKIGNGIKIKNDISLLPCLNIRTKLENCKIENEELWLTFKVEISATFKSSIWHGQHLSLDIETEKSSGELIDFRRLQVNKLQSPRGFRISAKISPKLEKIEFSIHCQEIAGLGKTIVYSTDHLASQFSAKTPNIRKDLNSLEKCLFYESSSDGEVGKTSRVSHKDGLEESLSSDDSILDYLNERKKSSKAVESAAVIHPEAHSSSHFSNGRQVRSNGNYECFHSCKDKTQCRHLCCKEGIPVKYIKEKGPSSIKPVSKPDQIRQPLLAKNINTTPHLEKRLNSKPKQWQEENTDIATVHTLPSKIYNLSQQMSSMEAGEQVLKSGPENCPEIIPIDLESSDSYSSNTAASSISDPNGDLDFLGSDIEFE

Binder	binding result (Mer3)	binding result (MBP-Mlh1;MBP-Mlh2)	binding result (His-Mlh1;Strep-Mlh2)	binding result [1]
D-loop (1253-T, 315, 320, X12-3SC) (mixed) DNA 1: GGGTCAACGTGGGCAAAGATGTCCTAGCAATGTAATCGTCTATGACGTT DNA 2: AACGTCATAGACGATGATCCGATGCATATCCGCCTGCCCACGTTGACCC DNA 3: GCGATAGTCTCTAGACAGCATGTCCTAGCAATACATTGCTAGGACATCTT DNA 4: TTGCTAGGACATGCTGTCTAGAGACTATCGC	binds	binds	binds	–
His-Dmc1 (natural protein, yeast, UniProt P25453 1-334, looked up) MSVTGTEIDSDTAKNILSVDELQNYGINASDLQKLKSGGIYTVNTVLSTTRRHLCKIKGLSEVKVEKIKEAAGKIIQVGFIPATVQLDIRQRVYSLSTGSKQLDSILGGGIMTMSITEVFGEFRCGKTQMSHTLCVTTQLPREMGGGEGKVAYIDTEGTFRPERIKQIAEGYELDPESCLANVSYARALNSEHQMELVEQLGEELSSGDYRLIVVDSIMANFRVDYCGRGELSERQQKLNQHLFKLNRLAEEFNVAVFLTNQVQSDPGASALFASADGRKPIGGHVLAHASATRILLRKGRGDERVAKLQDSPDMPEKECVYVIGEKGITDSSD	–	–	–	binds
